Laboratory results published in patent US12702697B2, “Compositions and methods for treatment of headache disorders and neuropathic pain” (Washington University, priority 2019, dated 2026).

Tests used:
[1] = system: Treg cells; experiment: Flow cytometry of T-cell subsets in peripheral blood, cervical LNs and spleen; type: in vivo, mouse
From the text: Blood, spleen, and cervical lymph node cell preparation, antibody staining, flow cytometry, and enzyme-linked immunosorbent assay (ELISA). Adult male DEREG and C57BL/6J mice received 15 daily injections of saline or IL2. About […] blood was collected from each mouse by submandibular bleeding. Mice used for blood collection were not used in the behavioral tests. Spleen and cervical LN tissues were ground and filtered through a sterile […] cell strainer. After lysis of red blood cells (420301; Biolegend), cells were pelleted and resuspended for antibody staining, ELISA, and ELISPOT assay. Live cells were counted by the Vi-CELL Automated Cell Viability Analyzer (Beckman, Chaska, MN).
About 2×10^6 suspension cells were stained with the following antibodies from Biolegend that recognizes mouse CD3e (clone 145-2C11), CD4 (clone GK1.5 and RM4-5), CD8 (clone 53-6.7), and CD25 (clone PC61). The percentages of individual cell phenotypes were determined using flow cytometric analysis. Data were collected with FACScan (Becton Dickinson, Franklin Lakes, NJ) and analyzed with CellQuest Pro (Becton Dickinson) and Rainbow X Alias (Cytek) softwares.

[2] = system: mTBI-induced memory deficit in mice; experiment: Novel object recognition (NOR) assay after mTBI; type: in vivo, mouse; conditions: ld-IL2 between day 6 and 12 post-mTBI
Method: The novel object recognition (NOR) assay was used to test the effect of mTBI and ld-IL2 treatment on cognition. On the training day, mice were allowed to explore two identical objects in an arena for 10 minutes. The next day, mice were allowed to explore the same space in the presence of the familiar object and a novel object to test long-term recognition memory. […] After mTBI, mice spent similar amounts of time exploring the familiar and the novel object, indicating a deficit in recognition memory (FIG. 12, mTBI+saline). […] Remarkably, the effect of ld-IL2 on memory deficit lasted for at least 20 days after the cessation of treatment.

[3] = system: mTBI-induced facial mechanical hypersensitivity in mice; experiment: Mouse model of mild traumatic brain injury-induced post-traumatic headache (facial mechanical thresholds, low-dose NTG priming); type: in vivo
From the text: Mouse model of mild traumatic brain injury-induced post-traumatic headache. Adult Swiss Webster mice (30-35 g) were subjected to mTBI using a modified closed head weight-drop method. 43, 58 Briefly, mice were anesthetized with 3% isoflurane for 90 seconds and were placed chest down on a foam sponge (4-cm thickness and 0.062-g/cm3 density) directly underneath a hollow cylindrical tube (1.5-cm inner diameter) placed approximately 1 cm vertically over the mouse's head. To induce mTBI, a 30-g weight (1.3-cm diameter and 3.4-cm height) was dropped through the tube from a height of 80 cm, striking the center point between the ears once. All mice regained righting reflex within 2 minutes. […] Sham mice were anesthetized with 3% isoflurane for 90 seconds but not subjected to the weight drop. Facial mechanical thresholds were measured before and at various time points after mTBI. Daily ldIL2 or saline were administered 1 or 7 days after the sham or mTBI procedure. To reveal mTBI-induced hyperalgesia priming, mice received daily i.p. injections of NTG (0.1 mg/kg, i.p.) for 4 to 6 days, starting at 35 days after mTBI. Facial mechanical thresholds were measured between day 35 and 43 days after mTBI. Note that on the days that the mouse behaviors were tested, NTG and/or IL2 were always injected after completing the behavioral tests.
(§1) Withdrawal responses to facial mechanical stimuli. The hair on mouse forehead (above and between 2 eyes) was shaved the day before testing. On the test day, the experimenter gently held the mouse on the palm with minimal restraint and applied the calibrated von Frey filament perpendicularly to the shaved skin, causing the filament to bend for 5 seconds. A positive response was determined by the following criteria as previously described: mouse vigorously stroked its face with the forepaw, head withdrawal from the stimulus, or head shaking (Elliott M B et al., Headache 2012; 52:966-84). The up-down paradigm was used to determine the 50% withdrawal threshold.

[4] = system: sumatriptan-induced cutaneous hypersensitivity in mice; experiment: Mouse model of medication overuse headache (repeated sumatriptan); type: in vivo
Method: Mouse model of medication overuse headache. After measuring baseline nociceptive responses, mice received daily i.p. injections of sumatriptan succinate (0.6 mg/kg; Fresenius Kabi, Lake Zurich, IL44). Daily ld-IL2 or saline were administered after mice received 2 sumatriptan injections. Facial and hindpaw mechanical thresholds were measured every 2 days. Note that on the days that the mouse behaviors were tested, sumatriptan and/or IL2 were always injected after completing the behavioral tests.
Responses to mechanical stimuli on the hindpaw. Mice were habituated in individual clear plexiglass boxes (11×11×15 cm) for 1 to 2 hours. A series of calibrated von Frey filaments was used to apply mechanical stimuli to the plantar surface of the hindpaws. The up-down paradigm was used to determine the 50% withdrawal threshold. The thresholds for both hindpaws were averaged to yield a single value for each mouse.
as §1

[5] = human, in vivo; cited from earlier work
[6] = system: IFNγ secretion by splenocytes; experiment: IFNγ ELISA and ELISPOT of CD3/CD28-stimulated splenocytes; type: cell-based, mouse
Method: To quantify interferon g (IFNγ) secretion, splenocytes were plated in 24-well plates (5 3 106 per well) and stimulated with antiCD3 and anti-CD28 antibodies ([…]) in 1 mL complete RPMI1640 media overnight. IFNγ in the supernatants were quantified by ELISA (430901; Biolegend).
ELISPOT assay was performed to determine the number of INFg-secreting cells. Splenocytes were plated at 5×10^4 cells per well and incubated overnight with RPMI1640 media containing anti-CD3 and anti-CD28 antibodies ([…]) for stimulation. IFNg was detected using a colorimetric reagent kit (R&D SEL485 and SEL002). Following development, images were captured and analyzed on the ImmunoSpot7.0 plate reader (Cellular Technologies, Kennesaw, GA).

[7] = 15 days of ld-IL2, C57BL/6J males
[8] = daily ld-IL2 starting 1 day after mTBI for 9 days, female Swiss Webster

B1: ld-IL2: Recombinant mouse IL2 (carrier-free; Biolegend), given as daily low-dose i.p. injection (protein, UniProt P04351 21-169, looked up)
Interleukin-2: APTSSSTSSSTAEAQQQQQQQQQQQQHLEQLLMDLQELLSRMENYRNLKLPRMLTFKFYLPKQATELKDLQCLEDELGPLRHVLDLTQSKSFQLEDAENFISNIRVTVVKLKGSDNTFECQFDDESATVVDFLRRWIAFCQSIISTSPQ
Q: With B1 as the molecule, how does the “percentage of EGFP+ Treg cells in the cervical LNs” value ([1]; 15 daily ld-IL2 injections, male DEREG mice) read?
A: increased significantly

Q: And the “number and frequency of CD25+CD4+ Treg cells in the spleen” value [1, 7]?
A: doubled

Q: What about the “number of CD8+ cells in the spleen” value [1, 7] of the same molecule?
A: increased only slightly

Q: What about the “increase of the frequency of EGFP+ Treg cells in the peripheral blood” value ([1]; after 5 daily ld-IL2 injections i.p., male DEREG mice) of the same molecule?
A: more than 100%

Q: And the “frequencies of CD4+ and CD3+ T cells in the blood or LNs” value ([1]; daily ld-IL2, 15 days)?
A: not altered

Q: And the “duration of the effect on memory deficit after cessation of treatment” value [2]?
A: at least 20 days

Q: What about the “novel object recognition deficit after mTBI” value [2] of the same molecule?
A: did not exhibit NOR deficit

Q: And the “persistent facial mechanical hypersensitivity to repeated low-dose NTG after mTBI” value ([3]; 3 weeks after cessation of ld-IL2, male Swiss Webster)?
A: failed to establish

Q: What about the “duration of protection from mTBI-induced hyperalgesia priming” value ([3]; 9 days of ld-IL2 treatment, male and female mice) of the same molecule?
A: at least 30 days

Q: And the “facial mechanical threshold, % of the baseline value” ([3]; after 3 days of ld-IL2 (day 10), started post-mTBI day 7 (about 26%), male Swiss Webster)?
A: 87%

Q: What about the “facial mechanical sensitivity of sham mice” value ([3]; daily ld-IL2, male Swiss Webster) of the same molecule?
A: did not change

Q: What about the “hyperalgesia priming revealed by repeated low-dose NTG” value [3, 8] of the same molecule?
A: completely prevented

Q: And the “mTBI-induced acute facial mechanical hypersensitivity” value [3, 8]?
A: completely prevented

Q: And the “mTBI-induced facial skin hypersensitivity at the end of ld-IL2 treatment” value ([3]; day 15, ld-IL2 day 7 onward for 9 days, male Swiss Webster)?
A: fully reversed

Q: What about the “sumatriptan induced cutaneous hypersensitivity” value ([4]; after 4 to 6 ld-IL2 injections (day 7-9)) of the same molecule?
A: significantly attenuated

Q: What about the “sumatriptan induced cutaneous hypersensitivity” value ([4]; after 8 days of IL2 treatment (day 11)) of the same molecule?
A: completely reversed

Q: What about the “cutaneous hypersensitivity in response to subsequent sumatriptan injections” value ([4]; continuous ld-IL2 (day 13)) of the same molecule?
A: neither male nor female mice developed cutaneous hypersensitivity

Q: What about the tolerability in patients [5] of the same molecule?
A: well tolerated

Q: What about the “amount of CD3/CD28 stimulation-induced IFNγ secretion” value ([6]; ELISA, cells from IL-2-treated mice) of the same molecule?
A: significantly reduced

Q: What about the “number of splenocytes secreting IFNγ” value ([6]; ELISPOT, 15 days of ld-IL2) of the same molecule?
A: not altered
